Laboratory results reported in ChEMBL document CHEMBL1250451, “Mechanistic insights into a Ca2+-dependent family of alpha-mannosidases in a human gut symbiont” (Nat Chem Biol, 2010).

Key:
Assay type in all cases: protein assay; call rule not given here
[1] = substrate: O=[N+]([O-])c1ccc(O[C@H]2O[C@H](CO)[C@@H](O)[C@H](O)[C@@H]2O)c([N+](=O)[O-])c1; assay: (§1) Ratio of Kcat to Km for Bacteroides thetaiotaomicron GH92 alpha-mannosidase 3990 D642A mutant assessed as as mannose release after 16 hrs by HPLC relative to wild type enzyme
[2] = substrate: O=[N+]([O-])c1ccc(O[C@H]2O[C@H](CO)[C@@H](O)[C@H](O)[C@@H]2O)cc1; assay: as §1
[3] = substrate: OC[C@H]1O[C@H](O[C@H]2[C@@H](O)[C@H](O)[C@@H](CO)O[C@@H]2O)[C@@H](O)[C@@H](O)[C@@H]1O; assay: as §1
[4] = substrate: O=[N+]([O-])c1ccc(O[C@H]2O[C@H](CO)[C@@H](O)[C@H](O)[C@@H]2O)cc1; assay: (§2) Activity of Bacteroides thetaiotaomicron GH92 alpha-mannosidase 3990 D642A mutant assessed as as mannose release after 16 hrs by HPLC relative to wild type enzyme
[5] = substrate: OC[C@H]1O[C@H](O[C@H]2[C@@H](O)[C@H](O)[C@@H](CO)O[C@@H]2O)[C@@H](O)[C@@H](O)[C@@H]1O; assay: as §2
[6] = substrate: O=[N+]([O-])c1ccc(O[C@H]2O[C@H](CO)[C@@H](O)[C@H](O)[C@@H]2O)cc1; assay: (§3) Activity of Bacteroides thetaiotaomicron GH92 alpha-mannosidase 3990 D644N mutant assessed as as mannose release after 16 hrs by HPLC relative to wild type enzyme
[7] = substrate: OC[C@H]1O[C@H](O[C@H]2[C@@H](O)[C@H](O)[C@@H](CO)O[C@@H]2O)[C@@H](O)[C@@H](O)[C@@H]1O; assay: as §3
[8] = substrate: O=[N+]([O-])c1ccc(O[C@H]2O[C@H](CO)[C@@H](O)[C@H](O)[C@@H]2O)c([N+](=O)[O-])c1; assay: (§4) Ratio of Kcat to Km for Bacteroides thetaiotaomicron GH92 alpha-mannosidase 3990 D644N mutant assessed as as mannose release after 16 hrs by HPLC relative to wild type enzyme
[9] = substrate: O=[N+]([O-])c1ccc(O[C@H]2O[C@H](CO)[C@@H](O)[C@H](O)[C@@H]2O)cc1; assay: as §4
[10] = substrate: OC[C@H]1O[C@H](O[C@H]2[C@@H](O)[C@H](O)[C@@H](CO)O[C@@H]2O)[C@@H](O)[C@@H](O)[C@@H]1O; assay: as §4
[11] = substrate: O=[N+]([O-])c1ccc(O[C@H]2O[C@H](CO)[C@@H](O)[C@H](O)[C@@H]2O)cc1; assay: (§5) Ratio of Kcat to Km for Bacteroides thetaiotaomicron GH92 alpha-mannosidase 2199 D648A mutant assessed as as mannose release after 16 hrs by HPLC relative to wild type enzyme
[12] = substrate: OC[C@H]1O[C@H](O[C@H]2[C@@H](O)[C@H](O)[C@@H](CO)O[C@@H]2O)[C@@H](O)[C@@H](O)[C@@H]1O; assay: as §5
[13] = substrate: O=[N+]([O-])c1ccc(O[C@H]2O[C@H](CO)[C@@H](O)[C@H](O)[C@@H]2O)cc1; assay: (§6) Activity of Bacteroides thetaiotaomicron GH92 alpha-mannosidase 2199 D648A mutant assessed as as mannose release after 16 hrs by HPLC relative to wild type enzyme
[14] = substrate: OC[C@H]1O[C@H](O[C@H]2[C@@H](O)[C@H](O)[C@@H](CO)O[C@@H]2O)[C@@H](O)[C@@H](O)[C@@H]1O; assay: as §6

B1: Alpha-1,2-mannosidase (BT_3990) (Bacteroides thetaiotaomicron), Q8A0N1 D642A (protein)
chain: MKRLLLIACILNCTLLSQAKDWTQYVNPLMGSQSTFELSTGNTYPAIARPWGMNFWTPQTGKMGDGWQYTYTANKIRGFKQTHQPSPWINDYGQFSIMPIVGQPVFDEEKRASWFAHKGEVATPYYYKVYLAEHDIVTEMTPTERAVLFRFTFPENDHSYVVVDAFDKGSYIKIIPEENKIIGYTTRNSGGVPENFKNYFIIEFDKPFTYKATVENGNLQENVAEQTTDHAGAIIGFKTRKGEQVNARIASSFISFEQAAANMNELGKDNIEQLAQKGKDAWNQVLGKIEVEGGNLDQYRTFYSCLYRSLLFPRKFYELDANGQPIHYSPYNGQVLPGYMFTDTGFWDTFRCLFPLLNLMYPSVNKEMQEGLINTYLESGFFPEWASPGHRGCMVGNNSASILVDAYMKGVKVDDIKTLYEGLIHGTENVHPEVSSTGRLGYEYYNKLGYVPYDVKINENAARTLEYAYDDWCIYRLAKELKRPKKEISLFAKRAMNYKNLFDKESKLMRGRNEDGTFQSPFSPLKWGDAFTEGNSWHYTWSVFHDPQGLIDLMGGKEMFVTMMDSVFAVPPIFDDSYYGQVIHEIREMTVMNMGNYAHGNQPIQHMIYLYDYAGQPWKAQYWLRQVMDRMYTPGPDGYCGAEDNGQTSAWYVFSALGFYPVCPGTDEYVMGTPLFKKATLHFENGNSLVIDAPNNSTENFYIDSMSFNGADHTKNYLRHEDLFKGGTIKVDMSNRPNLNRGTKEEDMPYSFSKE
kcat/Km [1]: 0.383 M⁻¹ s⁻¹
kcat/Km [2]: Not Active
kcat/Km [3]: 0.783 M⁻¹ s⁻¹
Km [4]: Not Active
kcat [4]: Not Active
Km [5]: 690 µM
kcat [5]: 0.000533 s⁻¹

B2: Alpha-1,2-mannosidase (BT_3990) (Bacteroides thetaiotaomicron), Q8A0N1 D644N (protein)
chain: MKRLLLIACILNCTLLSQAKDWTQYVNPLMGSQSTFELSTGNTYPAIARPWGMNFWTPQTGKMGDGWQYTYTANKIRGFKQTHQPSPWINDYGQFSIMPIVGQPVFDEEKRASWFAHKGEVATPYYYKVYLAEHDIVTEMTPTERAVLFRFTFPENDHSYVVVDAFDKGSYIKIIPEENKIIGYTTRNSGGVPENFKNYFIIEFDKPFTYKATVENGNLQENVAEQTTDHAGAIIGFKTRKGEQVNARIASSFISFEQAAANMNELGKDNIEQLAQKGKDAWNQVLGKIEVEGGNLDQYRTFYSCLYRSLLFPRKFYELDANGQPIHYSPYNGQVLPGYMFTDTGFWDTFRCLFPLLNLMYPSVNKEMQEGLINTYLESGFFPEWASPGHRGCMVGNNSASILVDAYMKGVKVDDIKTLYEGLIHGTENVHPEVSSTGRLGYEYYNKLGYVPYDVKINENAARTLEYAYDDWCIYRLAKELKRPKKEISLFAKRAMNYKNLFDKESKLMRGRNEDGTFQSPFSPLKWGDAFTEGNSWHYTWSVFHDPQGLIDLMGGKEMFVTMMDSVFAVPPIFDDSYYGQVIHEIREMTVMNMGNYAHGNQPIQHMIYLYDYAGQPWKAQYWLRQVMDRMYTPGPDGYCGDENNGQTSAWYVFSALGFYPVCPGTDEYVMGTPLFKKATLHFENGNSLVIDAPNNSTENFYIDSMSFNGADHTKNYLRHEDLFKGGTIKVDMSNRPNLNRGTKEEDMPYSFSKE
Km [6]: Not Active
kcat [6]: Not Active
Km [7]: 720 µM
kcat [7]: 0.000383 s⁻¹
kcat/Km [8]: 0.567 M⁻¹ s⁻¹
kcat/Km [9]: Not Active
kcat/Km [10]: 0.533 M⁻¹ s⁻¹

B3: Alpha-1,2-mannosidase (BT_2199) (Bacteroides thetaiotaomicron), Q8A5N9 D648A (protein)
chain: MVTRLFFLSICFPFLLTSCQQSKKTVEFVDYVNPLMGTESTFAFSHGNTYPAVAVPWGMNFWSPQTGENGSGWMYTYTDSLMRGFRQTHQPSPWINDYGTFSIMPLAGELKMSHKERLVPFSHQQEKATPYNYSVTFNNGLQTSLSATSRGAVFEVSFPEKEDQYVVVDAYNGGSSITIEPEKRLVKGATRYNNGGVPDNFANYFMMEFSHPVIEYGTYNGDTLLHHQTDVAADYTCAYLKFDVPAGEKLTIRTASSFISPEQAAINFNREVADADVQLISGKAREQWNNYLGRVEAEGGTDEQLRTFYSCLYRTLLFPREFYEFDSQGNPVYYSPYDGNVHDGYMYTDNGFWDTFRAVHPLFTLLYPEVSERVTQSIINAYNESGFMPEWASPGHRGCMIGNNSVSLLVDAWMKGIQTVDAEKALEAMIHQTQARHAEIASVGRDGFEYYDKLGYVPYPEVPEATAKTLEYAYADWCIARFAESLGKQDIADQYYQKAPNYRNLYYPEHGFMWTKDAKGNWRDRFDATEWGGPFTEGSSWHWTWSVFHDPEGLSELMGGHEPMIARLDSMFVAPNTYNYGTYGFVIHEIAEMVALNMGQYAHGNQPVQHAIYLYDYIGQPWKTQYHLRNVMDKLYNSGSKGYCGDEANGQTSAWYVFSAMGFYPVCPGMPEYAIGSPLFKKVTLHLPEGKNFVVSAADNAADRPYIRKALLNGQEFTRNYLTHDELKQGGELNLSMDSVPNQQRGTQPADFPYSYSK
kcat/Km [11]: Not Active
kcat/Km [12]: 0.167 M⁻¹ s⁻¹
Km [13]: Not Active
kcat [13]: Not Active
Km [14]: 2720 µM
kcat [14]: 0.000433 s⁻¹
